The values below come from patent US20240109965A1 (Ablynx, published 2024).

Experiment [1] deals with T1, cynomolgus TCRαβ-zipper protein (cynomolgus).
T1 construct: also called cyTCR(AEA41865)-zipper; CynoTCRαβ-zipper
T1 TCR alpha: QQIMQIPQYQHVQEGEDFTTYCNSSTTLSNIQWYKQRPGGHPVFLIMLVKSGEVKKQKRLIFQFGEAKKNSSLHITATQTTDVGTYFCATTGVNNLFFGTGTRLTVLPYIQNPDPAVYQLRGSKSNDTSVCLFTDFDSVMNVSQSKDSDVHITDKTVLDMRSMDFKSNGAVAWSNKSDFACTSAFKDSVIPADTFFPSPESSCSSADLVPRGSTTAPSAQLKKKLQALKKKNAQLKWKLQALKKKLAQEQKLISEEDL
T1 TCR beta: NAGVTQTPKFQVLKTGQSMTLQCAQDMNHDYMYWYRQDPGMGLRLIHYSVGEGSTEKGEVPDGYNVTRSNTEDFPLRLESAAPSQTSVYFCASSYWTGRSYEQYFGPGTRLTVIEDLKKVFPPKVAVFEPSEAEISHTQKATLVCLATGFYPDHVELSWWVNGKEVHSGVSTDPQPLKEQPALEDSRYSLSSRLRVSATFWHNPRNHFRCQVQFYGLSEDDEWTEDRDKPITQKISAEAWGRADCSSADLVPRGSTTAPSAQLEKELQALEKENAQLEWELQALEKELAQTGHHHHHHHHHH
Briefly: SPR Biacore 8K+, multi-cycle kinetics, TCR-zipper immobilized.
Procedure: Binding of purified TCE-CD123-ALB and CD123-TCE-ALB ISVD constructs to human TCRαβ-zipper protein (huTCR(2XN9)-zipper, in-house produced) and cynomolgus TCRαβ-zipper protein (cyTCR(AEA41865)-zipper, in-house produced) was probed by Surface Plasmon Resonance (SPR) (Cytiva, Biacore 8K+). Both targets were immobilized on a CM5 sensor chip using standard amine coupling chemistry. […] Each concentration of the ISVDs was injected for 180s and dissociation was assessed during 600s.
Data was double referenced by subtracting a reference flow cell (FC) and a blank buffer injection. Affinity constants (ka, kd and KD) were calculated applying the Langmuir 1:1 interaction model using the Biacore Insight Evaluation Software (Cytiva, Version 3.0.12.15655).

For experiment [2], the target named is T2, human T cell receptor (TCRαβ) on primary human T cells (human). In words: cell-based or functional assay.
In experiment [3] the target is T2, human T cell receptor (TCRαβ) on …. In words: cell-based or functional assay. This is another data set of the same source.

T2 sequence (P0DTU3 134-275, chain 1 of 2): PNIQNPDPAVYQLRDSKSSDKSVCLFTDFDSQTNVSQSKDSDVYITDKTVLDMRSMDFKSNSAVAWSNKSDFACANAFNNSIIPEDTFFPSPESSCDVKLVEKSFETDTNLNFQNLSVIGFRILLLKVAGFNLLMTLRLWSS
T2 sequence (P01850 other isoform, or with tags, fused parts or gaps, chain 2 of 2, further chain): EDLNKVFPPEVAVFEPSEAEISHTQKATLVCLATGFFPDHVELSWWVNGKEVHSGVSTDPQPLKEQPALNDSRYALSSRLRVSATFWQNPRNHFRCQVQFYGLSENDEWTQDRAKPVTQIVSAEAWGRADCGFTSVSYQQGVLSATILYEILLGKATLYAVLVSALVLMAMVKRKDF

B1: T017001028 (bispecific antibody)
chain: EVQLVESGGGVVQPGGSLRLSCAASGTTLDYYVIGWFRQAPGKEREGVSCISSSDGYTYYADSVKGRFTISRDNAKNTVYLQMNSLRPEDTALYYCATDPYYSSCHPFFADYEYDYWGQGTLVTVSSGGGGSGGGSEVQLVESGGGVVQPGGSLRLSCVASGYVHKINFYGWYRQAPGKEREKVAHISIGDQTDYAESAKGRFTISRDESKNTVYLQMNSLRPEDTAAYYCRALSRIYPYDYWGQGTLVTVSSGGGGSGGGSEVQLVESGGGVVQPGGSLRLSCAASGFTFRSFGMSWVRQAPGKGPEWVSSISGSGSDTLYADSVKGRFTISRDNSKNTLYLQMNSLRPEDTALYYCTIGGSLSRSSQGTLVTVSS
In experiment [1], B1 showed a Kd of 400 nM. Further, in experiment [2], the “EC50 (M), human T cell mediated MOLM-13 cell killing, Donor #1” value (shortened to “EC50 (M) … Donor #1”) amounted to 6.7e-10 M and the “EC50 (M), human T cell mediated MOLM-13 cell killing, Donor #2” value was 3.2e-09 M.

B2: T017001027 (bispecific antibody)
chain: EVQLVESGGGVVQPGGSLRLSCAASGTTLDYYVIGWFRQAPGKEREGVSCISSSDGYTYYADSVKGRFTISRDNAKNTVYLQMNSLRPEDTALYYCATDPYYSSCHPFFADYEYDYWGQGTLVTVSSGGGGSGGGSEVQLVESGGGVVQPGGSLRLSCVASGYVHKINFYGWYRQAPGKEREKVAHISIGDQTDYADSAKGRFTISRDESKNTVYLQMNSLRPEDTAAYYCRALSRIWPYDYWGQGTLVTVSSGGGGSGGGSEVQLVESGGGVVQPGGSLRLSCAASGFTFRSFGMSWVRQAPGKGPEWVSSISGSGSDTLYADSVKGRFTISRDNSKNTLYLQMNSLRPEDTALYYCTIGGSLSRSSQGTLVTVSS
On to B2, for which the Kd in experiment [1] came out at 190 nM. Moreover, in experiment [2], the “EC50 (M) … Donor #1” value was 5.7e-10 M and the “EC50 (M), human T cell mediated MOLM-13 cell killing, Donor #2” value was determined as 2.8e-09 M.

B3: T017001030 (bispecific antibody)
chain: EVQLVESGGGVVQPGGSLRLSCAASGTTLDYYVIGWFRQAPGKEREGVSCISSSDGYTYYADSVKGRFTISRDNAKNTVYLQMNSLRPEDTALYYCATDPYYSSCHPFFADYEYDYWGQGTLVTVSSGGGGSGGGSEVQLVESGGGVVQPGGSLRLSCVASGYVHKINFYGWYRQAPGKEREKVAHISIGDQTDYAESAKGRFTISRDESKNTVYLQMNSLRPEDTAAYYCRALSRISPYDYWGQGTLVTVSSGGGGSGGGSEVQLVESGGGVVQPGGSLRLSCAASGFTFRSFGMSWVRQAPGKGPEWVSSISGSGSDTLYADSVKGRFTISRDNSKNTLYLQMNSLRPEDTALYYCTIGGSLSRSSQGTLVTVSS
In experiment [1], B3 gave a Kd of 3600 nM. Further, the “EC50 (M) … Donor #1” value in experiment [2] is 5.8e-09 M.

B4: T017001020 (bispecific antibody)
chain: EVQLVESGGGVVQPGGSLRLSCVASGYVHKINFYGWYRQAPGKEREKVAHISIGDQTDYAESAKGRFTISRDESKNTVYLQMNSLRPEDTAAYYCRALSRISPYDYWGQGTLVTVSSGGGGSGGGSEVQLVESGGGVVQPGGSLRLSCAASGTTLDYYVIGWFRQAPGKEREGVSCISSSDGYTYYADSVKGRFTISRDNAKNTVYLQMNSLRPEDTALYYCATDPYYSSCHPFFADYEYDYWGQGTLVTVSSGGGGSGGGSEVQLVESGGGVVQPGGSLRLSCAASGFTFRSFGMSWVRQAPGKGPEWVSSISGSGSDTLYADSVKGRFTISRDNSKNTLYLQMNSLRPEDTALYYCTIGGSLSRSSQGTLVTVSS
On to B4, for which the affinity in experiment [1], expressed as Kd, was 550 nM. In experiment [3], the “Potency (M) - human T cells, KG-1a cell killing” value worked out at 7.6e-10 M.

A word on the Kd: it is the equilibrium constant for the complex coming apart. Read a low Kd as tighter binding.
